The koff is the first-order rate constant of dissociation. Broadly, the kon is a measure of how fast the partners come together. A low value points to slow association.

The text below walks through data of patent US20050031613A1.

Experiment [1] has as its target soluble hFcγRIIIa(V) (human) (UniProt P08637). Nature of the experiment: SPR, BIAcore 2000; end of the range tied to this antibody by Table 3 (0.48/0.28).
The target is the same in experiment [2]. Nature of the experiment: SPR, BIAcore 2000; shFcγRIIIa captured by anti-His antibody on CM5 chip, antibody in flow (0.625 to 20 µg/ml). On the technique in general: In SPR one partner is held on a chip, and binding of the other changes the refractive index at the surface.
In experiment [3] the target is soluble hFcγRIIIa(F) (human) (UniProt P08637). Nature of the experiment: SPR, BIAcore 2000; shFcγRIIIa captured by anti-His antibody on CM5 chip; KA from the equilibrium value of the binding.

As for Rituxan™ (antibody), the fold higher KA for shFcγRIIIa(V) than for shFcγRIIIa(F) in experiment [1] was 2 to 3 times. In experiment [2], this substance displayed a Ka of 4.8e+06 M⁻¹, a dissociation rate constant (koff) of 0.0071 s⁻¹ and an association rate constant (kon) of 34000 M⁻¹ s⁻¹. In experiment [3], this substance gave a Ka of 2.8e+06 M⁻¹.
